In test [1] the target is BG505 DS-SOSIP.664 stabilized soluble HIV-1 Env trimer (HIV-1 (clade A, strain BG505)) (UniProt Q2N0S6). In words: negative stain electron microscopy.
For test [2], the target named is BG505 Env (unmutated), on pseudovirus (HIV-1 (clade A, strain BG505)) (UniProt Q2N0S6).
Test [3] deals with CH505 Env, on pseudovirus (HIV-1 (clade C, isolate CH505)).

The molecule mature CH103 Fab gave a stoichiometry N (Fabs per trimer) in test [1] of 2. “CH103 KN Fab (partially UCA-reverted CH103 mutant, E75K and D76N)” came in with a stoichiometry N (Fab per trimer) in test [1] of 1.

B1: CH103 KN antibody (IgG; E75K and D76N in the heavy chain) (antibody, V domains shown)
V domain 1: QVQLQESGPGVVKSSETLSLTCTVSGGSMGGTYWSWLRLSPGKGLEWIGYIFHTGETNYSPSLKGRVSISVDTSKNQFSLRLRSVTAADTAVYFCASLPRGQLVNAYFRNWGRGSLVSVTA
V domain 2: SYELTQPPSVSVSPGQTATITCSGASTNVCWYQVKPGQSPEVVIFENYKRPSGIPDRFSGSKSGSTATLTIRGTQAIDEADYYCQVWDSFSTFVFGSGTQVTVL
Turning to B1, in test [2], the neutralisation of BG505 pseudovirus (TZM-bl), decrease against mature CH103 is more than 3 fold. For the same molecule, the neutralisation of CH505 pseudovirus (TZM-bl), decrease against mature CH103 in test [3] is more than 3 fold.

The record behind these values is publication PMC12335366.
